Experimental data published in patent publication US20240132578A1.

Experiments:
Test in all cases: cell-based or functional assay
[1] = molecular target: HIV-1 MGRM-D-018 envelope glycoprotein (Env), clade D pseudovirus (HIV-1)
[2] = molecular target: HIV-1 92RW020 envelope glycoprotein (Env), on pseudovirus (HIV-1 isolate 92RW020 (clade A))
[3] = molecular target: HIV-1 ADA envelope glycoprotein (Env), on pseudovirus (HIV-1 isolate ADA)
[4] = molecular target: HIV-1 Env of isolate 93TH305 (subtype B), on pseudovirus (HIV-1)
[5] = molecular target: HIV-1 Env of isolate MG RM-C-022 (HIV-1)
[6] = molecular target: HIV-1 Env of isolate MG RM-D-008 (subtype D) (HIV-1)
[7] = molecular target: HIV-1 Env of isolate MG RM-D-011 (subtype D) (HIV-1)
[8] = molecular target: HIV-1 Env of isolate MG RM-D-020 (subtype D) (HIV-1)
[9] = molecular target: HIV-1 Env of isolate MG RM-D-028 (subtype D) (HIV-1)
[10] = molecular target: HIV-1 Env of isolate MGRM-A-012 (pseudovirus) (HIV-1)
[11] = molecular target: HIV-1 Env of isolate MGRM-C-024 (clade C pseudovirus) (HIV-1)
[12] = molecular target: HIV-1 Env of isolate MGRM-C-025 (clade C pseudovirus) (HIV-1)
[13] = molecular target: HIV-1 Env of isolate MGRM-Chronic-B-002 (subtype B), on pseudovirus (HIV-1)
[14] = molecular target: HIV-1 Env of isolate MGRM-Chronic-B-012 (subtype B), on pseudovirus (HIV-1)
[15] = molecular target: HIV-1 Env of isolate MGRM-Chronic-B-023 (subtype B), on pseudovirus (HIV-1)
[16] = molecular target: HIV-1 Env of isolate MGRM-F1-016 (subtype F) (HIV-1)
[17] = molecular target: HIV-1 JR-CSF envelope glycoprotein (Env), wild type, on pseudovirus (HIV-1 isolate JR-CSF (clade B)) (UniProt P20871)
[18] = molecular target: HIV-1 envelope glycoprotein (Env) of isolate 92WR021 (HIV-1)
[19] = molecular target: HIV-1 envelope glycoprotein (Env) of isolate 92WR024 (HIV-1)
[20] = molecular target: HIV-1 envelope glycoprotein (Env) of isolate MG RM-A-009 (HIV-1)
[21] = molecular target: HIV-1 Env of isolate APV-13 (Clade B) (HIV-1)
[22] = molecular target: aMLV envelope on pseudotyped virus (negative control) (aMLV)
[23] = molecular target: HIV-1 92TH021 envelope glycoprotein (Env) (HIV-1)
[24] = molecular target: HIV-1 envelope glycoprotein (Env) of isolate APV13 (HIV-1)
[25] = molecular target: HIV-1 envelope glycoprotein (Env) of isolate MGRM-C-028 (HIV-1)
[26] = molecular target: HIV-1 MGRM-C-027 envelope glycoprotein (Env) on virus (HIV-1, clade C, isolate MGRM-C-027)
[27] = molecular target: HIV-1 Env of isolate MG RM-D-001 (subtype D) (HIV-1)
[28] = molecular target: HIV-1 Env of isolate MG RM-D-021 (subtype D) (HIV-1)
[29] = molecular target: HIV-1 Env of isolate MGRM-Chronic-B-020 (subtype B), on pseudovirus (HIV-1)
[30] = molecular target: HIV-1 Env of pseudovirus DU156 (HIV-1)
[31] = molecular target: HIV-1 Env of pseudovirus PVO.4 (HIV-1)
[32] = molecular target: HIV-1 Env of pseudovirus REJ04541 (HIV-1)
[33] = molecular target: HIV-1 JR-CSF Env N386A (HIV-1 isolate JR-CSF) (UniProt P20871)
[34] = molecular target: HIV-1 JR-CSF Env R350A (HIV-1 isolate JR-CSF) (UniProt P20871)
[35] = molecular target: HIV-1 93UG077 Env (pseudovirus) (HIV-1)
[36] = molecular target: HIV-1 MGRM-C-026 Env (pseudovirus) (HIV-1)
[37] = molecular target: HIV-1 MGRM-C-028 Env (pseudovirus) (HIV-1)
[38] = molecular target: HIV-1 MGRM-D-018 Env (pseudovirus) (HIV-1)

## 4858_P08 (PGT-123) (antibody)
[1]
  IC50, pseudovirus neutralization: 0.0047 mg/L
  IC80 (pseudovirus neutralization): 0.0175 mg/L
  IC90 (pseudovirus neutralization): 0.0381 mg/L
  IC95 (pseudovirus neutralization): 0.0791 mg/L

## 1496_C09 (PG9) (TCN-109) (antibody)
[2]
  IC50 (ug/ml), pseudovirus neutralization, TZM-bl assay: 0.1 µg/mL
[3]
  IC50 (ug/ml), pseudovirus neutralization, TZM-bl assay: 0.2 µg/mL
[4]
  IC50, single-round pseudovirus neutralization: 8.12 mg/L
[5]
  IC50 (µg/mL), pseudovirus neutralization: 0.346 µg/mL
[6]
  IC50 (µg/mL), pseudovirus neutralization: 11.5 µg/mL
[7]
  IC50 (µg/mL), pseudovirus neutralization: 0.071 µg/mL
[8]
  IC50 (µg/mL), pseudovirus neutralization: 1.67 µg/mL
[9]
  IC50 (µg/mL), pseudovirus neutralization: 20.2 µg/mL
[10]
  IC50 (µg/mL), pseudovirus neutralization: 19.3 µg/mL
[11]
  IC50 (µg/mL), single-round pseudovirus neutralization: 0.227 µg/mL
[12]
  IC50 (µg/mL), single-round pseudovirus neutralization: 0.148 µg/mL
[13]
  IC50, single-round pseudovirus neutralization: 3.44 mg/L
[14]
  IC50, single-round pseudovirus neutralization: 0.2 mg/L
[15]
  IC50, single-round pseudovirus neutralization: 0.027 mg/L
[16]
  IC50 (µg/mL), pseudovirus neutralization: 0.518 µg/mL
[17]
  IC50 (ug/ml), pseudovirus neutralization, TZM-bl assay: 0.006 µg/mL
[18]
  IC50: 0.027 mg/L
[19]
  IC50: 0.258 mg/L
[20]
  IC50: 0.023 mg/L

## b12 (antibody)
[21]
  IC90 (neutralization of pseudovirus): > 50 mg/L

## 1495_C14 (PGC14) (antibody)
[22]
  IC50, Neutralizing Antibody Assay, Virus/Ab Incubation 1 hour: > 50 mg/L
  IC50, Neutralizing Antibody Assay, Virus/Ab Incubation 18 hour: > 50 mg/L

## 5329_C19 (PGT-136) (antibody)
[23]
  Neutralization IC80: > 10 mg/L
  Neutralization IC90: > 10 mg/L
  Neutralization IC95: > 10 mg/L
  neutralization IC50: > 10 mg/L

## 5141_B17 (PGT-126) (antibody)
[24]
  Neutralization IC80: 0.0411 mg/L
  Neutralization IC90: 0.084 mg/L
  Neutralization IC95: 0.162 mg/L
  neutralization IC50: 0.012 mg/L
[25]
  Neutralization IC80: 2.62 mg/L
  Neutralization IC90: > 10 mg/L
  Neutralization IC95: > 10 mg/L
  neutralization IC50: 0.283 mg/L

## 4877_D15 (PGT-122) (antibody)
[26]
  Neutralization IC80: 0.499 mg/L
  Neutralization IC90: > 10 mg/L
  Neutralization IC95: > 10 mg/L
  neutralization IC50: 0.0388 mg/L

## PGV04 (antibody)
[4]
  IC50, single-round pseudovirus neutralization: 0.255 mg/L
[5]
  IC50 (µg/mL), pseudovirus neutralization: 18.3 µg/mL
[27]
  IC50 (µg/mL), pseudovirus neutralization: > 50 µg/mL
[6]
  IC50 (µg/mL), pseudovirus neutralization: 3.56 µg/mL
[7]
  IC50 (µg/mL), pseudovirus neutralization: 0.025 µg/mL
[8]
  IC50 (µg/mL), pseudovirus neutralization: 0.097 µg/mL
[28]
  IC50 (µg/mL), pseudovirus neutralization: > 50 µg/mL
[9]
  IC50 (µg/mL), pseudovirus neutralization: 1.01 µg/mL
[10]
  IC50 (µg/mL), pseudovirus neutralization: 0.225 µg/mL
[11]
  IC50 (µg/mL), single-round pseudovirus neutralization: > 50 µg/mL
[12]
  IC50 (µg/mL), single-round pseudovirus neutralization: > 50 µg/mL
[13]
  IC50, single-round pseudovirus neutralization: 0.142 mg/L
[14]
  IC50, single-round pseudovirus neutralization: > 50 mg/L
[29]
  IC50, single-round pseudovirus neutralization: 1.26 mg/L
[15]
  IC50, single-round pseudovirus neutralization: 0.139 mg/L
[16]
  IC50 (µg/mL), pseudovirus neutralization: 0.268 µg/mL
[18]
  IC50: 0.038 mg/L
[19]
  IC50: 0.31 mg/L
[20]
  IC50: 0.033 mg/L

## 1443_C16 (PG16) (TCN-116) (antibody)
[2]
  IC50 (ug/ml), pseudovirus neutralization, TZM-bl assay: 0.09 µg/mL
[3]
  IC50 (ug/ml), pseudovirus neutralization, TZM-bl assay: 0.004 µg/mL
[21]
  IC90 (neutralization of pseudovirus): > 50 mg/L
[30]
  IC50, pseudovirus neutralization (TZM-bl assay): < 0.01 mg/L
[31]
  IC50, pseudovirus neutralization (TZM-bl assay): 12.3 mg/L
[32]
  IC50, pseudovirus neutralization (TZM-bl assay): < 0.01 mg/L
[17]
  IC50 (ug/ml), pseudovirus neutralization, TZM-bl assay: 0.001 µg/mL
[22]
  IC50, Neutralizing Antibody Assay, Virus/Ab Incubation 1 hour: > 50 mg/L
  IC50, Neutralizing Antibody Assay, Virus/Ab Incubation 18 hour: > 50 mg/L

## 5147_N06 (PGT-130) (antibody)
[33]
  Fold IC50 increase relative to wild-type: 0.1 fold
[34]
  Fold IC50 increase relative to wild-type: 0.5 fold

## 5136_H01 (PGT-131) (antibody)
[34]
  Fold IC50 increase relative to wild-type: 1.3 fold

## 5123_A06 (PGT-125) (antibody)
[35]
  Neutralization by PGT-125, IC50: 0.0262 mg/L
  Neutralization by PGT-125, IC80: 0.0926 mg/L
  Neutralization by PGT-125, IC90: 0.206 mg/L
  Neutralization by PGT-125, IC95: 0.487 mg/L
[33]
  Fold IC50 increase relative to wild-type: 0.8 fold
[36]
  Neutralization by PGT-125, IC50: 0.0106 mg/L
  Neutralization by PGT-125, IC80: 0.035 mg/L
  Neutralization by PGT-125, IC90: 0.0705 mg/L
  Neutralization by PGT-125, IC95: 0.134 mg/L
[37]
  Neutralization by PGT-125, IC50: 5.78 mg/L
  Neutralization by PGT-125, IC80: > 10 mg/L
  Neutralization by PGT-125, IC90: > 10 mg/L
  Neutralization by PGT-125, IC95: > 10 mg/L
[38]
  Neutralization by PGT-125, IC50: 0.0382 mg/L
  Neutralization by PGT-125, IC80: 0.144 mg/L
  Neutralization by PGT-125, IC90: 0.339 mg/L
  Neutralization by PGT-125, IC95: 0.892 mg/L
